Data reported in paper PMC6195255, “EBP1 nuclear accumulation negatively feeds back on FERONIA-mediated RALF1 signaling”.

Target: T1, EBP1-GST (UniProt Q96327-3 1-401)
T1 sequence: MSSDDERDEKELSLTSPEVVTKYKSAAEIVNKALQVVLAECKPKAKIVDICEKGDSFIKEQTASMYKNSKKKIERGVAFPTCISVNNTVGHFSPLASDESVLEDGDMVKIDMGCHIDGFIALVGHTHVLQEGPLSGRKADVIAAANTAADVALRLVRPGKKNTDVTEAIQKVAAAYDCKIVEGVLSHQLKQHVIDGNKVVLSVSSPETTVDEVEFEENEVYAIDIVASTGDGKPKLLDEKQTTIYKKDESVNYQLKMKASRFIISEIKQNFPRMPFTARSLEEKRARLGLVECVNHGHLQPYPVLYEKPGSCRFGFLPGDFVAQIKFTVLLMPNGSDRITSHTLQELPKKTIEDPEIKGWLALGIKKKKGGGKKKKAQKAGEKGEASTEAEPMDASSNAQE
Test: EMSA; 100 ng EBP1-GST, 100 pg probe; competition with unlabeled CCACGTC DNA; 10 mM Tris pH 7.5, 50 mM KCl, 1 mM MgCl2, 5% glycerol, 0.5 mM DTT, 0.2 mg/mL BSA, 0.5 mg/mL polyglutamate; room temperature 20 min; 6% native PAGE
Conditions: protein: recombinant; tags: GST; label: FITC; blunt

B1: CML38 promoter CCACGTC probe (dsDNA)
DNA 1: AACACTAATCTACCACGTCTATTACACACA
DNA 2: TGTGTGTAATAGACGTGGTAGATTAGTGTT
binding result: binds
